Reference: IntAct's records for PubMed 9299557

B1: Tumor necrosis factor alpha-induced protein 3 (Homo sapiens), P21580 (parent)
chain: MAEQVLPQALYLSNMRKAVKIRERTPEDIFKPTNGIIHHFKTMHRYTLEMFRTCQFCPQFREIIHKALIDRNIQATLESQKKLNWCREVRKLVALKTNGDGNCLMHATSQYMWGVQDTDLVLRKALFSTLKETDTRNFKFRWQLESLKSQEFVETGLCYDTRNWNDEWDNLIKMASTDTPMARSGLQYNSLEEIHIFVLCNILRRPIIVISDKMLRSLESGSNFAPLKVGGIYLPLHWPAQECYRYPIVLGYDSHHFVPLVTLKDSGPEIRAVPLVNRDRGRFEDLKVHFLTDPENEMKEKLLKEYLMVIEIPVQGWDHGTTHLINAAKLDEANLPKEINLVDDYFELVQHEYKKWQENSEQGRREGHAQNPMEPSVPQLSLMDVKCETPNCPFFMSVNTQPLCHECSERRQKNQNKLPKLNSKPGPEGLPGMALGASRGEAYEPLAWNPEESTGGPHSAPPTAPSPFLFSETTAMKCRSPGCPFTLNVQHNGFCERCHNARQLHASHAPDHTRHLDPGKCQACLQDVTRTFNGICSTCFKRTTAEASSSLSTSLPPSCHQRSKSDPSRLVRSPSPHSCHRAGNDAPAGCLSQAARTPGDRTGTSKCRKAGCVYFGTPENKGFCTLCFIEYRENKHFAAASGKVSPTASRFQNTIPCLGRECGTLGSTMFEGYCQKCFIEAQNQRFHEAKRTEEQLRSSQRRDVPRTTQSTSRPKCARASCKNILACRSEELCMECQHPNQRMGPGAHRGEPAPEDPPKQRCRAPACDHFGNAKCNGYCNECFQFKQMYG
partner: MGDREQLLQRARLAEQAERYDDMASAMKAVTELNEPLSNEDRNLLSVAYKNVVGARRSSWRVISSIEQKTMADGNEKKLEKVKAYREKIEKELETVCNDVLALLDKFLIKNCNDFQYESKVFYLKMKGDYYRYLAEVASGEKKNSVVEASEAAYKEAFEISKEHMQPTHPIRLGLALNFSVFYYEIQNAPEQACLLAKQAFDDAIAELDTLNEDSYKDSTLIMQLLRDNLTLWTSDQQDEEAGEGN
B2: Tumor necrosis factor alpha-induced protein 3 (Homo sapiens), P21580 (parent)
chain: B1 chain

Variants of: B1
Conditions: with 1433f_mouse Ywhah

| effect of a mutation on the interaction | Variant |
| --- | --- |
| disrupting interaction | S565A |
| disrupting interaction | R562A |

Variants of: B2
Conditions: with 1433z_mouse Ywhaz

| effect of a mutation on the interaction | Variant |
| --- | --- |
| disrupting interaction | S565A |
| disrupting interaction | R562A |
